Source: US20260242478A1 (published 2026)
Where no end group is shown, it is not given here.

Columns and labels:
[1] = target: T1, PSMA Fab (006 PSMA Fab) (biotinylated (site not stated)); test: clonal phage ELISA on biotinylated PSMA Fab captured on neutravidin, anti-M13 HRP detection, competitor PSMA antigen
T1 construct: also called Anti-PSMA Fab

[2] = target: T1, PSMA Fab (006 PSMA Fab); test: clonal phage ELISA on biotinylated PSMA Fab captured on neutravidin, anti-M13 HRP detection, no PSMA antigen
Experimental: (§1) Clonal phage were harvested as crude supernatants and screened via standard ELISAs. […] Prior to the addition of clonal phage. wells were incubated with blocking buffer and PSMA antigen or blocking buffer alone. Without washing or aspirating, clonal phage supernatants were then added to the wells and incubated for a short time. Wells were then washed followed by detection of bound phage using a horse radish conjugated anti-M13 antibody.

[3] = target: T2, PSMA Fab (biotinylated (site not stated)); test: phage ELISA, biotinylated anti-PSMA Fab on neutravidin plate, anti-M13 HRP detection
T2 construct: Biotinylated PSMA Fab captured on neutravidin coated plates in the phage ELISA; also called Anti-PSMA Fab; 006 PSMA Fab

[4] = target: T2, PSMA Fab; test: phage ELISA, captured anti-PSMA Fab pre-incubated with PSMA antigen as competitor, anti-M13 HRP detection
Experimental: as §1

[5] = target: T3, Anti-PSMA Fab (biotinylated (site not stated)); test: phage ELISA; captured anti-PSMA Fab pre-incubated with PSMA antigen as competitor
T3 construct: The biotinylated PSMA Fab was captured on neutravidin coated plates for the phage ELISA; also called 006 PSMA Fab

[6] = target: T3, Anti-PSMA Fab; test: phage ELISA; biotinylated anti-PSMA Fab on neutravidin plate, anti-M13-HRP detection, no PSMA antigen
Experimental: as §1

Binder | Phage binding ELISA signal, Anti-PSMA Fab with PSMA antigen [1] | Phage binding ELISA signal, Anti-PSMA Fab [2] | Phage binding ELISA signal, Anti-PSMA Fab [3] | Phage binding ELISA signal, Anti-PSMA Fab in presence of PSMA antigen [4] | other results
TTAYCIPPWMCSGF [Phage-2955] | 0.15 | 2.27 | – | – | –
VDIQCKPLWMCIGM [Phage-2953] | 0.0643 | 2.27 | – | – | –
YLQFCKPVWMCTGF [Phage-2956] | 0.15 | 2.27 | – | – | –
PGPLCVPEWMCIGF (cysteine pairing not given here; also: peptide displayed as fusion to phage pIII, Clonal phage of the peptide-180 optimisation library, tested as crude phage supernatant; not shown: bacteriophage pIII coat protein to which the peptide is fused for display) [Phage-2964] | – | – | 2.26 | 0.114 | –
GERYCVPAWMCAGL (cysteine pairing not given here; also: peptide displayed as fusion to phage pIII, Clonal phage of the peptide-180 optimisation library, tested as crude phage supernatant; not shown: bacteriophage pIII coat protein to which the peptide is fused for display) [Phage-2967] | – | – | 2.26 | 0.106 | –
ADPVCRPQWMCEGF [Phage-2961] | 0.11 | 2.26 | – | – | –
TLMRCEPSWMCQGF [Phage-2954] | 0.0698 | 2.27 | – | – | –
FGYACIPNWMCTVF (It was tested as crude clonal phage supernatant; also called Peptide-180 library clone) [Phage-2978] | – | – | – | – | Phage binding ELISA signal, Anti-PSMA Fab with PSMA antigen [5]: 0.122; Phage binding ELISA signal, Anti-PSMA Fab [6]: 2.24
IMPKCEPIWMCAGF (cysteine pairing not given here; also: peptide displayed as fusion to phage pIII) [Phage-2952] | 0.0746 | 2.27 | – | – | –
WEQRCVPEWMCVGF [Phage-2960] | 0.0987 | 2.26 | – | – | –
GVPMCVPDWMCHGL (cysteine pairing not given here; also: peptide displayed as fusion to phage pIII, Clonal phage of the peptide-180 optimisation library, tested as crude phage supernatant; not shown: bacteriophage pIII coat protein to which the peptide is fused for display) [Phage-2975] | – | – | 2.24 | 0.073 | –
FEMLCKPAWMCSGF (It was tested as crude clonal phage supernatant; also called Peptide-180 library clone) [Phage-2976] | – | – | – | – | Phage binding ELISA signal, Anti-PSMA Fab with PSMA antigen [5]: 0.0857; Phage binding ELISA signal, Anti-PSMA Fab [6]: 2.24
VQSLCVPYWMCTGF (cysteine pairing not given here; also: peptide displayed as fusion to phage pIII, Clonal phage of the peptide-180 optimisation library, tested as crude phage supernatant; not shown: bacteriophage pIII coat protein to which the peptide is fused for display) [Phage-2962] | – | – | 2.26 | 0.102 | –
EQPLCTPQWMCWGF [Phage-2958] | 0.0972 | 2.27 | – | – | –
WEAMCQPLWMCTGF (cysteine pairing not given here; also: peptide displayed as fusion to phage pIII, Clonal phage of the peptide-180 optimisation library, tested as crude phage supernatant; not shown: bacteriophage pIII coat protein to which the peptide is fused for display) [Phage-2968] | – | – | 2.26 | 0.0968 | –
VGAACIPDWMCVGF (cysteine pairing not given here; also: peptide displayed as fusion to phage pIII, Clonal phage of the peptide-180 optimisation library, tested as crude phage supernatant; not shown: bacteriophage pIII coat protein to which the peptide is fused for display) [Phage-2974] | – | – | 2.25 | 0.0732 | –

Binder | Phage binding ELISA signal, Anti-PSMA Fab with PSMA antigen [1] | Phage binding ELISA signal, Anti-PSMA Fab [2] | Phage binding ELISA signal, Anti-PSMA Fab [3] | Phage binding ELISA signal, Anti-PSMA Fab in presence of PSMA antigen [4] | other results
SSPICKPMWMCTGF [Phage-2950] | 0.0918 | 2.28 | – | – | –
ENIMCEPMWMCIGF [Phage-2951] | 0.0839 | 2.27 | – | – | –
SEIACRPAWMCQWL (It was tested as crude clonal phage supernatant; also called Peptide-180 library clone) [Phage-2979] | – | – | – | – | Phage binding ELISA signal, Anti-PSMA Fab with PSMA antigen [5]: 0.125; Phage binding ELISA signal, Anti-PSMA Fab [6]: 2.24
FPHMCKPEWMCAGF (cysteine pairing not given here; also: peptide displayed as fusion to phage pIII) [Phage-2948] | 0.0876 | 2.28 | – | – | –
VYPLCKPSWMCSGL (cysteine pairing not given here; also: peptide displayed as fusion to phage pIII, Clonal phage of the peptide-180 optimisation library, tested as crude phage supernatant; not shown: bacteriophage pIII coat protein to which the peptide is fused for display) [Phage-2970] | – | – | 2.26 | 0.0843 | –
WDHLCKPDWMCLGF [Phage-2949] | 0.0766 | 2.28 | – | – | –
AYEMCIPAWMCEGF [Phage-2957] | 0.0905 | 2.27 | – | – | –
TELRCVPSWMCTGF (It was tested as crude clonal phage supernatant; also called Peptide-180 library clone) [Phage-2977] | – | – | – | – | Phage binding ELISA signal, Anti-PSMA Fab with PSMA antigen [5]: 0.0676; Phage binding ELISA signal, Anti-PSMA Fab [6]: 2.24
GDVYCKPAWMCDGF (cysteine pairing not given here; also: peptide displayed as fusion to phage pIII, Clonal phage of the peptide-180 optimisation library, tested as crude phage supernatant; not shown: bacteriophage pIII coat protein to which the peptide is fused for display) [Phage-2972] | – | – | 2.25 | 0.0762 | –
DIPICRPQWMCIGF (cysteine pairing not given here; also: peptide displayed as fusion to phage pIII, Clonal phage of the peptide-180 optimisation library, tested as crude phage supernatant; not shown: bacteriophage pIII coat protein to which the peptide is fused for display) [Phage-2971] | – | – | 2.25 | 0.0617 | –
QTPVCIPEWMCTGF (cysteine pairing not given here; also: peptide displayed as fusion to phage pIII, Clonal phage of the peptide-180 optimisation library, tested as crude phage supernatant; not shown: bacteriophage pIII coat protein to which the peptide is fused for display) [Phage-2966] | – | – | 2.26 | 0.091 | –
PEFVCKPSWMCQGF [Phage-2959] | 0.0681 | 2.26 | – | – | –
LFKMCQPSWMCDGF (cysteine pairing not given here; also: peptide displayed as fusion to phage pIII, Clonal phage of the peptide-180 optimisation library, tested as crude phage supernatant; not shown: bacteriophage pIII coat protein to which the peptide is fused for display) [Phage-2965] | – | – | 2.26 | 0.0804 | –
NLPLCKPAWMCKWL (cysteine pairing not given here; also: peptide displayed as fusion to phage pIII, Clonal phage of the peptide-180 optimisation library, tested as crude phage supernatant; not shown: bacteriophage pIII coat protein to which the peptide is fused for display) [Phage-2963] | – | – | 2.26 | 0.125 | –
VSPLCVPSWMCVGF (cysteine pairing not given here; also: peptide displayed as fusion to phage pIII, Clonal phage of the peptide-180 optimisation library, tested as crude phage supernatant; not shown: bacteriophage pIII coat protein to which the peptide is fused for display) [Phage-2973] | – | – | 2.25 | 0.108 | –
LDIWCVPAWMCHGF (cysteine pairing not given here; also: peptide displayed as fusion to phage pIII, Clonal phage of the peptide-180 optimisation library, tested as crude phage supernatant; not shown: bacteriophage pIII coat protein to which the peptide is fused for display) [Phage-2969] | – | – | 2.26 | 0.0712 | –
